# Assay results as given in the supplement of paper PMC10567573.
# B1: ZNF263 (parent)
# chain: HLTRHQRTHTGEKPYKCTLCGENF
# Variants of: B1
# Experiment: protein stability index of a GFP-peptide fusion (GPS, HEK-293T) (PSI 1-6); higher = more stable
# Conditions: c terminus: a fixed tail appended
# 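Note: lentivirally expressed fusions sorted by FACS into six bins by GFP to DsRed ratio, PSI derived from sequencing read proportions per bin multiplied by bin number.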
row,Variant,protein stability index
1,HLTRHQRTHTGEKMYKCTLCGENF [P14M],2.63
2,HLTRHQRTHTGEKKYKCTLCGENF [P14K],3.31
3,HLTRHQRTHTGEKIYKCTLCGENF [P14I],2.9
4,HLTRHQRTHTGEKFYKCTLCGENF [P14F],2.78
5,HLTRHQRTHTGEKAYKCTLCGENF [P14A],2.79
6,HLTRHQRTHTGEKHYKCTLCGENF [P14H],3.01
7,HLTRHQRTHTGEKTYKCTLCGENF [P14T],2.88
8,HLTRHQRTHTGEKQYKCTLCGENF [P14Q],3.14
9,HLTRHQRTHTGEKNYKCTLCGENF [P14N],2.92
10,HLTRHQRTHTGEKYYKCTLCGENF [P14Y],3.04
11,HLTRHQRTHTGEKPYKCTLCMENF [G21M],3.06
12,HLTRHQRTHTGEKPYKCTLCHENF [G21H],3.46
13,HLTRHQRTHTGEKPYKCTLCCENF [G21C],2.73
14,HLTRHQRTHTGEKPYKCTLCNENF [G21N],3.02
15,HLTRHQRTHTGEKPYKCTLCFENF [G21F],2.43
16,HLTRHQRTHTGEKPYKCTLCPENF [G21P],2.68
17,HLTRYQRTHTGEKPYKCTLCGENF [H5Y],2.39
18,HLTRIQRTHTGEKPYKCTLCGENF [H5I],2.11
19,HLTRKQRTHTGEKPYKCTLCGENF [H5K],2.98
20,HLTRSQRTHTGEKPYKCTLCGENF [H5S],3.2
21,HLTRPQRTHTGEKPYKCTLCGENF [H5P],2.91
22,HLTRGQRTHTGEKPYKCTLCGENF [H5G],3
23,HLTRNQRTHTGEKPYKCTLCGENF [H5N],2.34
24,HLTRRQRTHTGEKPYKCTLCGENF [H5R],2.74

row,Variant,protein stability index
1,ELTRHQRTHTGEKPYKCTLCGENF [H1E],2.97
2,RLTRHQRTHTGEKPYKCTLCGENF [H1R],3.02
3,MLTRHQRTHTGEKPYKCTLCGENF [H1M],3.02
4,CLTRHQRTHTGEKPYKCTLCGENF [H1C],4.02
5,NLTRHQRTHTGEKPYKCTLCGENF [H1N],3.22
6,QLTRHQRTHTGEKPYKCTLCGENF [H1Q],3.06
7,WLTRHQRTHTGEKPYKCTLCGENF [H1W],2.22
8,PLTRHQRTHTGEKPYKCTLCGENF [H1P],4.14
9,HLTRHQRTHGGEKPYKCTLCGENF [T10G],2.92
10,HLTRHQRTHAGEKPYKCTLCGENF [T10A],3.14
11,HLTRHQRTHYGEKPYKCTLCGENF [T10Y],2.58
12,HLTRHQRTHEGEKPYKCTLCGENF [T10E],3.42
13,HLTRHQRTHVGEKPYKCTLCGENF [T10V],2.45
14,HLTRHQRTHRGEKPYKCTLCGENF [T10R],3.36
15,HLTRHQRTHSGEKPYKCTLCGENF [T10S],3.12
16,HLTRHQRTHPGEKPYKCTLCGENF [T10P],2.45
17,HLTRHQRTHTGENPYKCTLCGENF [K13N],3.16
18,HLTRHQRTHTGEFPYKCTLCGENF [K13F],2.65
19,HLTRHQRTHTGECPYKCTLCGENF [K13C],4.22
20,HLTRHQRTHTGESPYKCTLCGENF [K13S],3.24
21,HLTRHQRTHTGERPYKCTLCGENF [K13R],2.98
22,HLTRHQRTHTGEVPYKCTLCGENF [K13V],2.69
23,HLTRHQRTHTGEQPYKCTLCGENF [K13Q],3.6
24,HLTRHQRTHTGEAPYKCTLCGENF [K13A],3.28

row,Variant,protein stability index
1,HLTRHQRTHTGEMPYKCTLCGENF [K13M],2.56
2,HLTRHQRTHTGEGPYKCTLCGENF [K13G],2.92
3,HLTRHQRTHTGEDPYKCTLCGENF [K13D],2.82
4,HLTRHQRTHTGEKPYKCTLCGQNF [E22Q],2.38
5,HLTRHQRTHTGEKPYKCTLCGFNF [E22F],1.95
6,HLTRHQRTHTGEKPYKCTLCGKNF [E22K],2.36
7,HLTRHQRTHTGEKPYKCTLCGINF [E22I],2.75
8,HLTRHQRTHTGEKPYKCTLCGYNF [E22Y],2.39
9,HLTRHQRTHTGEKPYKCTLCGMNF [E22M],2.31
10,HLTRHQRTHTGEKPYKCTLCGTNF [E22T],2.58
11,HLTRHQRTHTGEKPYKCTLCGNNF [E22N],2.69
12,HLTRHQRTHTGEKPYKCTLCGPNF [E22P],2.95
13,HLTRHQRTHTGEKPYKCTLCGWNF [E22W],2.13
14,HLTRHQRTHTGEKPYKCTLCGEMF [N23M],2.3
15,HLTRHQRTHTGEKPYKCTLCGEEF [N23E],2.75
16,HLTRHQRTHTGEKPYKCTLCGEVF [N23V],1.85
17,HLTRHQRTHTGEKPYKCTLCGEHF [N23H],1.98
18,HLTRHQRTHTGEKPYKCTLCGEKF [N23K],3.22
19,HLTRHQRTHTGEKPYKCTLCGEYF [N23Y],2.53
20,HLTRHQRTHTGEKPYKCTLCGESF [N23S],2.7
21,HLTRHQRTHTGEKPYKCTLCGERF [N23R],3.08
22,HLTRHQRTHTGEKPYKCTLCGEWF [N23W],2.57
23,HLTRHQRTHTGEKPYKCTLCGEQF [N23Q],2.63
24,HLTRHQRTHTGEKPYKCTLCGECF [N23C],3.13

row,Variant,protein stability index
1,HLTRHQRTHTGVKPYKCTLCGENF [E12V],3.08
2,HLTRHQRTHTGNKPYKCTLCGENF [E12N],2.7
3,HLTRHQRTHTGTKPYKCTLCGENF [E12T],2.59
4,HLTRHQRTHTGQKPYKCTLCGENF [E12Q],2.74
5,HLTRHQRTHTGLKPYKCTLCGENF [E12L],2.29
6,HLTRHQRTHTGHKPYKCTLCGENF [E12H],3.78
7,HLTRHQRTHTGEKPYKCCLCGENF [T18C],2.54
8,HLTRHQRTHTGEKPYKCDLCGENF [T18D],2.75
9,HLTRHQRTHTGEKPYKCPLCGENF [T18P],2.4
10,HLTRHQRTHTGEKPYKCFLCGENF [T18F],2.56
11,HLTRHQRTHTGEKPYKCGLCGENF [T18G],2.45
12,HLTRHQRTHTGEKPYKCHLCGENF [T18H],2.65
13,HLTRHQRTHTGEKPYKCILCGENF [T18I],2.36
14,HLTRHQRTHTGEKPYKCYLCGENF [T18Y],3.09
15,HLTRHQRTHTGEKPYKCWLCGENF [T18W],2.54
16,HLTRHQRTHTGEKPYKCLLCGENF [T18L],2.49
17,HLTRHQRTHTGEKPYKGTLCGENF [C17G],3.52
18,HLTRHQRTHTGEKPYKRTLCGENF [C17R],2.98
19,HLTRHQRTHTGEKPYKMTLCGENF [C17M],2.81
20,HLTRHQRTHTGEKPYKPTLCGENF [C17P],3.37
21,HLTRHQRTHTGEKPYKETLCGENF [C17E],3.96
22,HLTRHQRTHTGEKPYKFTLCGENF [C17F],2.44
